Results from US20240052061A1.

Biological target: T1, human ecto-nucleoside triphosphate diphosphohydrolase-3 (NTPDase3) (human) (UniProt O75355)
T1 sequence (looked up): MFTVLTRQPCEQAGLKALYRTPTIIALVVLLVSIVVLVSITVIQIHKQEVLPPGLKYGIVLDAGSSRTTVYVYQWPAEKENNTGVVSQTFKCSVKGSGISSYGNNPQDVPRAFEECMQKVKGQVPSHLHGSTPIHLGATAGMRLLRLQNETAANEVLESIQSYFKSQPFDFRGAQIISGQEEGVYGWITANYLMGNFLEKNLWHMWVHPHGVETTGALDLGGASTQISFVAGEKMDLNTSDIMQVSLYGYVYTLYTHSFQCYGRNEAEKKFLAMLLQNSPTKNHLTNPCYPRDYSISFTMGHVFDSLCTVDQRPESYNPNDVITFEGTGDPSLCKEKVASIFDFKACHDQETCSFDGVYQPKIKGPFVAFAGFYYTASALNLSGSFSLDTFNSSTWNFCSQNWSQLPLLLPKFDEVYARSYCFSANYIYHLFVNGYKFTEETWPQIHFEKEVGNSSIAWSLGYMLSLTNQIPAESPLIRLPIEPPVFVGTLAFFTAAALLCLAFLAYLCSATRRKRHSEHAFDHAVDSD
Experiment: cell-based or functional assay

B1: 8E1 hIgG1 (antibody, V domains shown)
VH: EQQLLESGGGLVQPGGSLRLSCAVSGFSLSSYAMGWVRQAPGKGLEFIGIISYSGNTYYASWAKGRFTISKDSSKNTVYLQMNSLRAEDTAVYFCARARYGGYSTNSYYLNIWGPGTLVTVSS
VL: DVQMTQSPSTLSASVGDRVTITCQASENIYRVLAWYQQKPGKRPKLLIYGASNLESGVPSRFSGSGSGTEYTLTISSLQPDDFATYYCQGVVYNSDDSAFGGGTKVEIK
In the case of B1, the ADCC EC50 (µg/mL), NFAT luciferase reporter Jurkat/hCD16a-158V is reported as 0.047 µg/mL, the ADCC fold increase in relation to parental clone at 1 µg/mL is reported as 1.5 fold and the CDC % of Maximal Cytotoxicity is reported as 25%. For the same binder, the CDC EC50 was 0.867 mg/L, the CDC: fold increase in the maximal CDC cytotoxicity over the parental 8E1 Hu/Ra chimeric clone was 2 fold and the Enzyme Activity Inhibition Capacity: % of Maximal Inhibition was 15%.
